{
  "source": "patent US20250197838A1",
  "about": "“UROKINASE-TYPE PLASMINOGEN ACTIVATOR RECEPTOR BINDING PEPTIDES AND METHODS OF USE” (The United States Government as represented by the …, priority 2022, published 2025)",
  "key": {"[1]": {"molecular_target": "T1, uPAR (Homo sapiens, UniProt Q03405)", "experiment": "Hydroxyl radical footprinting (HRF) with LC-MS: free FXII vs FXII in complex with uPAR", "assay_type": "binding", "procedure": "Briefly, free uPAR and human FXII protein samples were prepared with the final protein concentration of 2.5 μM and 3 μM, respectively (1:1.2 uPAR: FXII molar ratio). Free uPAR and FXII and FXII-uPAR complex were exposed to hydroxyl radicals for intervals of 0, 12, 20, and 40 milliseconds using the X-ray beam line. Next, the irradiated samples were reduced and alkylated with 10 mM and 25 mM of DTT and iodoacetamide, respectively. Subsequently, the samples were subjected to a trypsin and AspN digestion (1:10 enzyme to protein ratio) followed by liquid chromatography coupled with high-resolution mass spectrometry (LC-MS). The MS data were analyzed manually resulting in dose-response plots for each peptide. The HRF process introduces stable side chain oxidative modifications resulting in specific mass shifts, which were identified from the tandem mass spectrometry data. The selected ion chromatograms (SIC) were extracted and integrated for the un-oxidized and the oxidized forms of peptide ion (with particular m z). These peak area values were used to characterize reaction kinetics in the form of dose-response (DR) plots, which measure the loss of intact peptide as a function of the hydroxyl radical exposure. […] Differences in the rate of oxidation (called rate constant, RC) indicate the potential locations of the binding interface. MSI data for free and complex proteins were used to determine RC values for each peptide within the protein. Peptide location and the corresponding sequence are shown in columns 1 and 2, respectively. The third and fourth columns show the RC values for the free FXII protein and complex, respectively. The RC values were averaged from replicate experiments and the associated errors are shown next to each RC value."}, "[2]": {"molecular_target": "FXII-uPAR binding (Homo sapiens, UniProt Q03405)", "sequence (Q03405 23-305 limits assumed)": "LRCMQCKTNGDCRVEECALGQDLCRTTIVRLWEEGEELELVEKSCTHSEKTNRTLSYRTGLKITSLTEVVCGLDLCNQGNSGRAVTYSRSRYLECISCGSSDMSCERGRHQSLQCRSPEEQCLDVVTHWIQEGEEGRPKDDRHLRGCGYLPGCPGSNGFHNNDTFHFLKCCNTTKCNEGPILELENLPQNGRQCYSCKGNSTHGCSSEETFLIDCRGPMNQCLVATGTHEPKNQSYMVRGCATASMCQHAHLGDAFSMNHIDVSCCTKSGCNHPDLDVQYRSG", "experiment": "Microscale thermophoresis of FXII-uPAR binding in absence or presence of FXII-derived inhibitory peptides", "details": "FIG. 2A", "procedure": "FIGS. 2A-D show the characterization of FXII-derived inhibitory peptides. […] FXII_fl: recombinant full length FXII: Combo: combination of IPP-DLA-LHV peptides, 10 μM each. * p=0.004 FXII_fl vs. Combo, 2-way ANOVA.\nThe results provide insight on the structure of the non-catalytic region of FXII. These advances have also provided the structural details required to develop peptide antagonists. To this end, 3 peptides containing FXII amino acid residues implicated in uPAR binding were synthesized and termed “IPP” (corresponding to SEQ ID NO: 1), “DLA” (corresponding to SEQ ID NO: 2), and “LHV” (corresponding to SEQ ID NO: 3). The kinetics of peptide interference with FXII-uPAR binding was screened which yielded nanomolar affinity for each (FIG. 2A)."}, "[3]": {"molecular_target": "T1, uPAR", "experiment": "Microscale thermophoresis of uPAR binding on site-directed FXII mutants (Ala substitutions)", "details": "FIG. 1D", "text": "FIGS. 1A-D show the characterization of the FXII-uPAR binding interphase.\nEach variant was characterized in several assays including microscale thermophoresis. […] These findings explain, at least in part, why the FXII-uPAR interaction is not a constitutive process in vivo."}, "[4]": {"molecular_target": "T2, urokinase-type plasminogen activator receptor (uPAR; Plaur, Homo sapiens) (Homo sapiens, UniProt Q03405 23-305, limits assumed)", "T2 construct": "also called human uPAR; human soluble uPAR", "T2 sequence (Q03405 23-305 limits assumed)": "as above", "experiment": "peptide interference with FXII-uPAR binding, microscale thermophoresis"}},
  "data": [
    {"molecule": "DLAQCQTPTQAAPPTPVSPR [listing 1 of 2 here]", "values": [
      {"measurement": "Modification rate, KFXII, S^−1 FXII free", "setting": "[1]; site P285, FXII position 272-291", "value": "1.3 ± 0.061", "unit": "S^−1"},
      {"measurement": "Modification rate, KCOM, S^−1 FXII complex", "setting": "[1]; site P285, FXII position 272-291, complex with human uPAR", "value": "0.87 ± 0.030", "unit": "S^−1"},
      {"measurement": "Modification rate, KFXII, S^−1 FXII free", "setting": "[1]; site P287, FXII position 272-291", "value": "0.23 ± 0.021", "unit": "S^−1"},
      {"measurement": "Modification rate, KCOM, S^−1 FXII complex", "setting": "[1]; site P287, FXII position 272-291, complex with human uPAR", "value": "0.11 ± 0.009", "unit": "S^−1"},
      {"measurement": "Modification rate, KFXII, S^−1 FXII free", "setting": "[1]; site Q281, FXII position 272-291", "value": "0.97 ± 0.047", "unit": "S^−1"},
      {"measurement": "Modification rate, KCOM, S^−1 FXII complex", "setting": "[1]; site Q281, FXII position 272-291, complex with human uPAR", "value": "0.53 ± 0.019", "unit": "S^−1"},
      {"measurement": "Modification rate, KFXII, S^−1 FXII free", "setting": "[1]; site V288, FXII position 272-291", "value": "0.71 ± 0.04", "unit": "S^−1"},
      {"measurement": "Modification rate, KCOM, S^−1 FXII complex", "setting": "[1]; site V288, FXII position 272-291, complex with human uPAR", "value": "0.46 ± 0.019", "unit": "S^−1"}
    ]},
    {"molecule": "LHVPLMPAQPAPPK [listing 1 of 2 here]", "values": [
      {"measurement": "affinity, peptide interference with FXII-uPAR binding", "setting": "[2]", "value": "nanomolar"}
    ]},
    {"molecule": "LHVPLMPAQPAPPK [listing 2 of 2 here]", "values": [
      {"measurement": "Modification rate, KFXII, S^−1 FXII free", "setting": "[1]; site H293, FXII position 292-305", "value": "2.55 ± 0.30", "unit": "S^−1"},
      {"measurement": "Modification rate, KCOM, S^−1 FXII complex", "setting": "[1]; site H293, FXII position 292-305, complex with human uPAR", "value": "1.82 ± 0.15", "unit": "S^−1"},
      {"measurement": "Modification rate, KFXII, S^−1 FXII free", "setting": "[1]; site K305, FXII position 292-305", "value": "1.06 ± 0.063", "unit": "S^−1"},
      {"measurement": "Modification rate, KCOM, S^−1 FXII complex", "setting": "[1]; site K305, FXII position 292-305, complex with human uPAR", "value": "0.58 ± 0.042", "unit": "S^−1"},
      {"measurement": "Modification rate, KFXII, S^−1 FXII free", "setting": "[1]; site L296, FXII position 292-305", "value": "0.62 ± 0.054", "unit": "S^−1"},
      {"measurement": "Modification rate, KCOM, S^−1 FXII complex", "setting": "[1]; site L296, FXII position 292-305, complex with human uPAR", "value": "0.29 ± 0.057", "unit": "S^−1"},
      {"measurement": "Modification rate, KFXII, S^−1 FXII free", "setting": "[1]; site V294, FXII position 292-305", "value": "0.85 ± 0.093", "unit": "S^−1"},
      {"measurement": "Modification rate, KCOM, S^−1 FXII complex", "setting": "[1]; site V294, FXII position 292-305, complex with human uPAR", "value": "0.79 ± 0.078", "unit": "S^−1"}
    ]},
    {"molecule": "DLAQCQTPTQAAPPTPVSPR [listing 2 of 2 here]", "values": [
      {"measurement": "affinity, peptide interference with FXII-uPAR binding", "setting": "[2]", "value": "nanomolar"}
    ]},
    {"molecule": "IPPWEAPK [listing 1 of 2 here]", "values": [
      {"measurement": "affinity, peptide interference with FXII-uPAR binding", "setting": "[2]", "value": "nanomolar"}
    ]},
    {"molecule": "IPPWEAPK [listing 2 of 2 here]", "values": [
      {"measurement": "Modification rate, KFXII, S^−1 FXII free", "setting": "[1]; site W4, FXII position 1-8", "value": "3.08 ± 0.25", "unit": "S^−1"},
      {"measurement": "Modification rate, KCOM, S^−1 FXII complex", "setting": "[1]; site W4, FXII position 1-8, complex with human uPAR", "value": "3.08 ± 0.13", "unit": "S^−1"}
    ]},
    {"molecule": "W4A variant: zymogen FXII with single Ala substitution of W residue at position 4 (protein) IPPAEAPKEHKYKAEEHTVVLTVTGEPCHFPFQYHRQLYHKCTHKGRPGPQPWCATTPNFDQDQRWGYCLEPKKVKDHCSKHSPCQKGGTCVNMPSGPHCLCPQHLTGNHCQKEKCFEPQLLRFFHKNEIWYRTEQAAVARCQCKGPDAHCQRLASQACRTNPCLHGGRCLEVEGHRLCHCPVGYTGAFCDVDTKASCYDGRGLSYRGLARTTLSGAPCQPWASEATYRNVTAEQARNWGLGGHAFCRNPDNDIRPWCFVLNRDRLSWEYCDLAQCQTPTQAAPPTPVSPRLHVPLMPAQPAPPKPQPTTRTPPQSQTPGALPAKREQPPSLTRNGPLSCGQRLRKSLSSMTRVVGGLVALRGAHPYIAALYWGHSFCAGSLIAPCWVLTAAHCLQDRPAPEDLTVVLGQERRNHSCEPCQTLAVRSYRLHEAFSPVSYQHDLALLRLQEDADGSCALLSPYVQPVCLPSGAARPSETTLCQVAGWGHQFEGAEEYASFLQEAQVPFLSLERCSAPDVHGSSILPGMLCAGFLEGGTDACQGDSGGPLVCEDQAAERRLTLQGIISWGSGCGDRNKPGVYTDVAYYLAWIREHTVS", "values": [
      {"measurement": "FXII-uPAR binding of FXII variant", "setting": "[3]", "value": "significantly reduced"}
    ]},
    {"molecule": "IPPWEAPK (Synthesized FXII-derived peptide)", "note": "[IPP peptide (IPPWEAPK)]", "values": [
      {"measurement": "binding result", "setting": "[4]", "value": "binds"}
    ]},
    {"molecule": "DLAQCQTPTQAAPPTPVSPR (Synthesized FXII-derived peptide)", "note": "[DLA peptide (DLAQCQTPTQAAPPTPVSPR)]", "values": [
      {"measurement": "binding result", "setting": "[4]", "value": "binds"}
    ]},
    {"molecule": "LHVPLMPAQPAPPK (Synthesized FXII-derived peptide)", "note": "[LHV peptide (LHVPLMPAQPAPPK)]", "values": [
      {"measurement": "binding result", "setting": "[4]", "value": "binds"}
    ]}
  ]
}
